Experimental data as given in article PMC5343618, “Multimer recognition and secretion by the non-classical secretion pathway in Bacillus subtilis” (Scientific Reports, 2017).

Molecular target: the molecule itself
Assay: native gel or EMSA; blue native PAGE (BN-PAGE) of the soluble cytoplasmic fraction and the culture supernatant of B. subtilis after 24 h of cultivation; non-reducing sample buffer, Coomassie blue; mass estimated within ±15%

Protein | stoichiometry N
fructose 1,6-bisphosphate aldolase (FbaA) (enzyme, B. subtilis 168, UniProt P13243 1-285, looked up, fructose 1,6-bisphosphate aldolase (FbaA), B. subtilis; gene amplified from B. subtilis 168 chromosomal DNA; source: B. subtilis 1A751, overexpressed from a pMAR-derived plasmid; cytoplasmic fraction and culture supernatant, not purified) MPLVSMTEMLNTAKEKGYAVGQFNLNNLEFTQAILQAAEEEKSPVILGVSEGAGRYMGGFKTVVAMVKALMEEYKVTVPVAIHLDHGSSFESCAKAIHAGFTSVMIDASHHPFEENVATTAKVVELAHFHGVSVEAELGTVGGQEDDVIAEGVIYADPKECQELVERTGIDCLAPALGSVHGPYKGEPNLGFKEMEEIGKSTGLPLVLHGGTGIPTADIKKSISLGTAKINVNTENQISSAKAVRETLAAKPDEYDPRKYLGPAREAIKETVIGKMREFGSSNQA | 5
glyceraldehyde 3-phosphate dehydrogenase (GapA) (enzyme, B. subtilis 168, UniProt P09124 1-335, looked up, glyceraldehyde 3-phosphate dehydrogenase (GapA), B. subtilis; gene amplified from B. subtilis 168 chromosomal DNA; source: B. subtilis 1A751, overexpressed from a pMAR-derived plasmid; cytoplasmic fraction and culture supernatant, not purified) MAVKVGINGFGRIGRNVFRAALNNPEVEVVAVNDLTDANMLAHLLQYDSVHGKLDAEVSVDGNNLVVNGKTIEVSAERDPAKLSWGKQGVEIVVESTGFFTKRADAAKHLEAGAKKVIISAPANEEDITIVMGVNEDKYDAANHDVISNASCTTNCLAPFAKVLNDKFGIKRGMMTTVHSYTNDQQILDLPHKDYRRARAAAENIIPTSTGAAKAVSLVLPELKGKLNGGAMRVPTPNVSLVDLVAELNQEVTAEEVNAALKEAAEGDLKGILGYSEEPLVSGDYNGNKNSSTIDALSTMVMEGSMVKVISWYDNESGYSNRVVDLAAYIAKKGL | 3
molecular chaperone (GroEL) (natural protein, B. subtilis 168, UniProt P28598 1-544, looked up, molecular chaperone GroEL, B. subtilis; gene amplified from B. subtilis 168 chromosomal DNA; source: B. subtilis 1A751, overexpressed from a pMAR-derived plasmid; cytoplasmic fraction and culture supernatant, not purified) MAKEIKFSEEARRAMLRGVDALADAVKVTLGPKGRNVVLEKKFGSPLITNDGVTIAKEIELEDAFENMGAKLVAEVASKTNDVAGDGTTTATVLAQAMIREGLKNVTAGANPVGVRKGMEQAVAVAIENLKEISKPIEGKESIAQVAAISAADEEVGSLIAEAMERVGNDGVITIEESKGFTTELEVVEGMQFDRGYASPYMVTDSDKMEAVLDNPYILITDKKITNIQEILPVLEQVVQQGKPLLLIAEDVEGEALATLVVNKLRGTFNAVAVKAPGFGDRRKAMLEDIAVLTGGEVITEDLGLDLKSTQIAQLGRASKVVVTKENTTIVEGAGETDKISARVTQIRAQVEETTSEFDREKLQERLAKLAGGVAVIKVGAATETELKERKLRIEDALNSTRAAVEEGIVSGGGTALVNVYNKVAAVEAEGDAQTGINIVLRALEEPIRQIAHNAGLEGSVIVERLKNEEIGVGFNAATGEWVNMIEKGIVDPTKVTRSALQNAASVAAMFLTTEAVVADKPEENGGGAGMPDMGGMGGMGGMM | 2
vegetative catalase (KatA) (enzyme, B. subtilis 168, UniProt P26901 1-483, looked up, vegetative catalase (KatA), B. subtilis; gene amplified from B. subtilis 168 chromosomal DNA; source: B. subtilis 1A751, overexpressed from a pMAR-derived plasmid; cytoplasmic fraction and culture supernatant, not purified) MSSNKLTTSWGAPVGDNQNSMTAGSRGPTLIQDVHLLEKLAHFNRERVPERVVHAKGAGAHGYFEVTNDVTKYTKAAFLSEVGKRTPLFIRFSTVAGELGSADTVRDPRGFAVKFYTEEGNYDIVGNNTPVFFIRDAIKFPDFIHTQKRDPKTHLKNPTAVWDFWSLSPESLHQVTILMSDRGIPATLRHMHGFGSHTFKWTNAEGEGVWIKYHFKTEQGVKNLDVNTAAKIAGENPDYHTEDLFNAIENGDYPAWKLYVQIMPLEDANTYRFDPFDVTKVWSQKDYPLIEVGRMVLDRNPENYFAEVEQATFSPGTLVPGIDVSPDKMLQGRLFAYHDAHRYRVGANHQALPINRARNKVNNYQRDGQMRFDDNGGGSVYYEPNSFGGPKESPEDKQAAYPVQGIADSVSYDHYDHYTQAGDLYRLMSEDERTRLVENIVNAMKPVEKEEIKLRQIEHFYKADPEYGKRVAEGLGLPIKKDS | 4
pyruvate dehydrogenase PdhD (enzyme, B. subtilis 168, UniProt P21880 1-470, looked up, pyruvate dehydrogenase PdhD, B. subtilis; gene amplified from B. subtilis 168 chromosomal DNA; source: B. subtilis 1A751, overexpressed from a pMAR-derived plasmid; cytoplasmic fraction and culture supernatant, not purified) MVVGDFPIETDTLVIGAGPGGYVAAIRAAQLGQKVTVVEKATLGGVCLNVGCIPSKALINAGHRYENAKHSDDMGITAENVTVDFTKVQEWKASVVNKLTGGVAGLLKGNKVDVVKGEAYFVDSNSVRVMDENSAQTYTFKNAIIATGSRPIELPNFKYSERVLNSTGALALKEIPKKLVVIGGGYIGTELGTAYANFGTELVILEGGDEILPGFEKQMSSLVTRRLKKKGNVEIHTNAMAKGVEERPDGVTVTFEVKGEEKTVDADYVLITVGRRPNTDELGLEQVGIEMTDRGIVKTDKQCRTNVPNIYAIGDIIEGPPLAHKASYEGKIAAEAIAGEPAEIDYLGIPAVVFSEPELASVGYTEAQAKEEGLDIVAAKFPFAANGRALSLNETDGFMKLITRKEDGLVIGAQIAGASASDMISELSLAIEGGMTAEDIAMTIHAHPTLGEITMEAAEVAIGSPIHIVK | 2
arginase (RocF) (enzyme, B. subtilis 168, UniProt P39138 1-296, looked up, arginase (RocF), B. subtilis; gene amplified from B. subtilis 168 chromosomal DNA; source: B. subtilis 1A751, overexpressed from a pMAR-derived plasmid; cytoplasmic fraction and culture supernatant, not purified) MDKTISVIGMPMDLGQARRGVDMGPSAIRYAHLIERLSDMGYTVEDLGDIPINREKIKNDEELKNLNSVLAGNEKLAQKVNKVIEEKKFPLVLGGDHSIAIGTLAGTAKHYDNLGVIWYDAHGDLNTLETSPSGNIHGMPLAVSLGIGHESLVNLEGYAPKIKPENVVIIGARSLDEGERKYIKESGMKVYTMHEIDRLGMTKVIEETLDYLSACDGVHLSLDLDGLDPNDAPGVGTPVVGGISYRESHLAMEMLYDAGIITSAEFVEVNPILDHKNKTGKTAVELVESLLGKKLL | 5
superoxide dismutase (SodA) (enzyme, B. subtilis 168, UniProt P54375 1-202, looked up, superoxide dismutase (SodA), B. subtilis; gene amplified from B. subtilis 168 chromosomal DNA; source: B. subtilis 1A751, overexpressed from a pMAR-derived plasmid; cytoplasmic fraction and culture supernatant, not purified) MAYELPELPYAYDALEPHIDKETMTIHHTKHHNTYVTNLNKAVEGNTALANKSVEELVADLDSVPENIRTAVRNNGGGHANHKLFWTLLSPNGGGEPTGALAEEINSVFGSFDKFKEQFAAAAAGRFGSGWAWLVVNNGKLEITSTPNQDSPLSEGKTPILGLDVWEHAYYLNYQNRRPDYISAFWNVVNWDEVARLYSEAK | 2
1-pyrroline-5-carboxylate dehydrogenase (YcgN) (enzyme, B. subtilis 168, UniProt P94391 1-515, looked up, 1-pyrroline-5-carboxylate dehydrogenase (YcgN), B. subtilis; gene amplified from B. subtilis 168 chromosomal DNA; source: B. subtilis 1A751, overexpressed from a pMAR-derived plasmid; cytoplasmic fraction and culture supernatant, not purified) MTTPYKHEPFTNFQDQNNVEAFKKALATVSEYLGKDYPLVINGERVETEAKIVSINPADKEEVVGRVSKASQEHAEQAIQAAAKAFEEWRYTSPEERAAVLFRAAAKVRRRKHEFSALLVKEAGKPWNEADADTAEAIDFMEYYARQMIELAKGKPVNSREGEKNQYVYTPTGVTVVIPPWNFLFAIMAGTTVAPIVTGNTVVLKPASATPVIAAKFVEVLEESGLPKGVVNFVPGSGAEVGDYLVDHPKTSLITFTGSREVGTRIFERAAKVQPGQQHLKRVIAEMGGKDTVVVDEDADIELAAQSIFTSAFGFAGQKCSAGSRAVVHEKVYDQVLERVIEITESKVTAKPDSADVYMGPVIDQGSYDKIMSYIEIGKQEGRLVSGGTGDDSKGYFIKPTIFADLDPKARLMQEEIFGPVVAFCKVSDFDEALEVANNTEYGLTGAVITNNRKHIERAKQEFHVGNLYFNRNCTGAIVGYHPFGGFKMSGTDSKAGGPDYLALHMQAKTISEMF | 4
transaldolase (YwjH) (enzyme, B. subtilis 168, UniProt P19669 1-212, looked up, transaldolase (YwjH), B. subtilis; gene amplified from B. subtilis 168 chromosomal DNA; source: B. subtilis 1A751, overexpressed from a pMAR-derived plasmid; cytoplasmic fraction and culture supernatant, not purified) MLFFVDTANIDEIREANELGILAGVTTNPSLVAKEANVSFHDRLREITDVVKGSVSAEVISLKAEEMIEEGKELAKIAPNITVKIPMTSDGLKAVRALTDLGIKTNVTLIFNANQALLAARAGATYVSPFLGRLDDIGHNGLDLISEVKQIFDIHGLDTQIIAASIRHPQHVTEAALRGAHIGTMPLKVIHALTKHPLTDKGIEQFLADWNK | 7
general stress protein (YceD) (natural protein, B. subtilis 168, UniProt P80875 1-193, looked up, general stress protein YceD, B. subtilis; gene amplified from B. subtilis 168 chromosomal DNA; Seen as monomer and as dimer; source: B. subtilis 1A751, overexpressed from a pMAR-derived plasmid; cytoplasmic fraction and culture supernatant, not purified) MTISLAKGQKVDLTKTNPGLSKVVVGLGWDTNKYDGGHDFDLDSSVFLLDAAGKCASPNDFIFYNQLEGGNGSVVHSGDNLTGAGEGDDENVKVNLSAVPANIDKISFVITIHDAEARSQNFGQVSNAFVRIVNEETNEELIRYDLAEDFSIETAIIAGELYRHNGEWKFSAIGSGYQGGLARIATDYGLQVG | 2
